For data set [1], the system named is HIV-1 particles. Briefly: Release of HIV-1 virus-like particles from transfected COS-1 cells, Western blot with anti-CA. The format is cell-based. A general note: Immunoblotting shows a protein as a band on a membrane.
A short description of data set [2]: Solubility of the peptide. As to conditions: precluded testing at higher concentrations. The format is physicochemical.
Data set [3] concerns the target GAL4 activation domain-Tsg101 fusion protein (wild-type human Tsg101) (yeast; human) (UniProt Q99816). Briefly: cell-based or functional assay.
Data set [4] deals with GAL4 DNA-binding domain-p1-p6 fusion protein (yeast; HIV-1) (UniProt P04386). Briefly: cell-based or functional assay.
Data set [5] deals with HIV-1 Gag. In kind it is cell-based.

Where no end group is shown, it is not given here.

For `CC(C)CC[C@@H](O)[C@](C)(O)[C@H]1CC[C@@]2(O)C3=CC(=O)[C@@H]4C[C@@H](O)[C@@H](O)C[C@]4(C)[C@H]3CC[C@]12C` [pa, pronasterone, reference compound], the “effect on virus particle release” value in data set [1] is “no inhibitory effect”.

As to ALQSRPEPTAPPEES, the “solubility of the peptide” value in data set [2] is “limited solubility”.

In data set [3], “GAL4 DNA-binding domain-p1-p6 with both PTAPP motifs deleted (from UniProt P04386 1-147; P03347 435-512)” yielded a β-galactosidase activity (yeast 2-hybrid) of under 0.3%.

“GAL4 DNA-binding domain-p1-p6 with the (LXX)4 repeat motif deleted (from UniProt P04386 1-147; P03347 435-512)” returned a β-galactosidase activity (yeast 2-hybrid) (% of wild-type) in data set [3] of 55.

The molecule “GAL4 DNA-binding domain-p1-p6 with the first PTAPP motif deleted (from UniProt P04386 1-147; P03347 435-512)” showed a β-galactosidase activity (yeast 2-hybrid) (% of wild-type) in data set [3] of 50.

The molecule “GAL4 DNA-binding domain-p1-p6 with the first PTAPP motif deleted and Ala for Pro7 in the second motif (from UniProt P04386 1-147; P03347 435-512)” registered an enzyme activity (β-galactosidase, yeast 2-hybrid) (% of wild-type) in data set [3] of 25.

The molecule “GAL4 DNA-binding domain-p1-p6 with the second PTAPP motif deleted (from UniProt P04386 1-147; P03347 435-512)” yielded a β-galactosidase activity (yeast 2-hybrid) (% of wild-type) in data set [3] of 25.

Molecule “GAL4 activation domain-Tsg101 Y110W (from UniProt P04386 768-881)” yielded a 2-hybrid assay, percent of wild-type interaction (% of wild-type) in data set [4] of 31.

In data set [4], “GAL4 activation domain-Tsg101 Y113V (from UniProt P04386 768-881)” displayed a 2-hybrid assay, percent of wild-type interaction (% of wild-type) of 33.

“GAL4 activation domain-Tsg101 with Ala for Thr67-Tyr68-Asn69 (from UniProt P04386 768-881)” showed a 2-hybrid assay, percent of wild-type interaction (% of wild-type) in data set [4] of 5.

B1: SD5-59 (protein)
chain: MAVSESQLKKMVSKYKYRDLTVRETVNVITLYKDLKPVLDSYVFNDGSSRELMNLTGTIPVPYRGNTYNIPICLWLLDTYPYNPPICFVKPTSSMTIKTGKHVDANGKIYLPYLHEWKHPQSDLLGLIQVMIVVFGDEPPVFSRPISASYPPYQATGPPNTSYMPGMPGGISPYPSGYPPNPSGYPGCPYPPGGPYPATTSSQYPSQPPVTTVGPSRDGTISEDTIRASLISAVSDKLRWRMKEEMDRAQAELNALKRTEEDLKKGHQKLEEMVTRLDQEVAEVDKNIELLKKKDEELSSALEKMENQSENNDIDEVIIPTAPLYKQILNLYAEENAIEDTIFYLGEGGVIDLDVFLKHVRLLSRKQFQLRALMQKARKTAGLSDLY
modifications: left off: small tags and cut ends
For the molecule B1, in data set [1] (COS cells, wild-type gag, 1 and 5 μM pa), the “Gag processing in released particles” value is “accumulation of particle-associated uncleaved Gag precursor”. Besides, the “release of virus particles” value in data set [1] (COS cells, wild-type gag, increasing expression with 1 and 5 μM pa) is reported as “permitted release of virus particles”. Further, in data set [5], the “viral protein in P1 fraction” value was “no protein was found” and the “viral protein in S1 fraction” value was “detectable levels of viral protein”.

B2: pIND-h-Tsg101-FLAG: wild-type human Tsg101, FLAG-tagged, inducibly over-expressed from plasmid (protein)
chain: MAVSESQLKKMVSKYKYRDLTVRETVNVITLYKDLKPVLDSYVFNDGSSRELMNLTGTIPVPYRGNTYNIPICLWLLDTYPYNPPICFVKPTSSMTIKTGKHVDANGKIYLPYLHEWKHPQSDLLGLIQVMIVVFGDEPPVFSRPISASYPPYQATGPPNTSYMPGMPGGISPYPSGYPPNPSGYPGCPYPPGGPYPATTSSQYPSQPPVTTVGPSRDGTISEDTIRASLISAVSDKLRWRMKEEMDRAQAELNALKRTEEDLKKGHQKLEEMVTRLDQEVAEVDKNIELLKKKDEELSSALEKMENQSENNDIDEVIIPTAPLYKQILNLYAEENAIEDTIFYLGEALRRGVIDLDVFLKHVRLLSRKQFQLRALMQKARKTAGLSDLY
modifications: left off: small tags and cut ends
notes: wild-type human Tsg101, FLAG-tagged, inducibly over-expressed from plasmid
On to B2, for which, in data set [1] (COS-1 cells, gagΔp6, Tsg101 overexpression, 0, 1, 5 μM pa), the “release of immature particles containing GagΔp6” value is on record as “not significantly affected”. In addition, in data set [1] (COS-1 cells, wild-type gag, 1 μM pa inducer), the “amount of mature CA in released virus, of the control (0 μM pa) level” value was about 60%. The “amount of mature CA in released virus, of the control (0 μM pa) level” value in data set [1] (COS-1 cells, wild-type gag, 5 μM pa inducer) is on record as about 30%. Besides, in data set [5], the “viral protein in P1 fraction” value is given as “no detectable viral protein” and the “viral protein in S1 fraction” value is “no detectable viral protein”.

Values taken from patent US20050009745A1, “TSG101 as inhibitor of HIV production” (priority 2001, published 2005).
